The values below come from article PMC12090751 (Journal of Virology, 2025).

The target of assay [1] is HA1 F1 (aa 11-329) displayed on yeast as Aga2 fusion (Influenza A virus H5, Re8 vaccine …, UniProt Q9Q0U6, strain). Briefly: immunostaining of cells or tissue. The note with it: one partner purified.
Assay [2] addresses HA1 fragment F7 (aa 50-271) displayed on yeast as Aga2 fusion (Influenza A virus H5, Re8 vaccine …, UniProt Q9Q0U6, strain). Briefly: immunostaining of cells or tissue. Particulars: one partner purified.

B1: Nb10 with Twin-Strep-tag (VHH)
VHH: QVQLQESGGGSVQAGGSLRLSCSASEYTRSMAWFRQVPGKEREGVAAIDTGNGNTYYPTVDGRFIISRGNAKNSVDLEMNSLTPDDTAIYYCAATQGPLWPTLGTQFSTESYNYWGQGTLVTVSS
With B1, the binding result in assay [1] and in assay [2] was “binds” in each case.
